Experimental data as given in publication PMC7265321 (The Journal of Cell Biology, 2020).

T1: Katanin with MEI-1 S92D (6xHis-MEI-1 S92D / Strep-MEI-2) (C. elegans, UniProt P34808 1-472; O44740 1-280, S92D)
T1 sequence (looked up) 1: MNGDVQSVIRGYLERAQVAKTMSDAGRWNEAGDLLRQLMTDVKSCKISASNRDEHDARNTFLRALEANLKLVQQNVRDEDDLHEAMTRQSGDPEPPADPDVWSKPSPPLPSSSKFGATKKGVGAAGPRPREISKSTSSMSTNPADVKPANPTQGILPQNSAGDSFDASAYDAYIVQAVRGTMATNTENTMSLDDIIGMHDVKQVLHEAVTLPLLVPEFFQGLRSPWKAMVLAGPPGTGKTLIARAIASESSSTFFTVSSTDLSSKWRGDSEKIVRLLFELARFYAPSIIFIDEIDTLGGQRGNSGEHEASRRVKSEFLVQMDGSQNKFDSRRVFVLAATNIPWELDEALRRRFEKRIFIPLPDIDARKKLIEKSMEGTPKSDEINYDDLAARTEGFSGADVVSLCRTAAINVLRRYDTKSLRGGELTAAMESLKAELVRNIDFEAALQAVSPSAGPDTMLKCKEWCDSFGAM
T1 sequence (looked up) 2: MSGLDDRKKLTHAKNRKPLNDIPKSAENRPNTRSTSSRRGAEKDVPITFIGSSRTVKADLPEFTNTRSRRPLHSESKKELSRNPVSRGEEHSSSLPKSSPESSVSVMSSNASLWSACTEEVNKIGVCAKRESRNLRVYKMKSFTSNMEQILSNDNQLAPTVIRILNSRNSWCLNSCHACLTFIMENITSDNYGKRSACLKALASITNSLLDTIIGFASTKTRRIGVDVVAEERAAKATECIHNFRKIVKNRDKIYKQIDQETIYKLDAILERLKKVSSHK

T2: MEI-1 S92-aaPho-6xHis (C. elegans, UniProt P34808 1-472, phosphoserine at 92 (100% by mass spectrometry))
T2 sequence (looked up): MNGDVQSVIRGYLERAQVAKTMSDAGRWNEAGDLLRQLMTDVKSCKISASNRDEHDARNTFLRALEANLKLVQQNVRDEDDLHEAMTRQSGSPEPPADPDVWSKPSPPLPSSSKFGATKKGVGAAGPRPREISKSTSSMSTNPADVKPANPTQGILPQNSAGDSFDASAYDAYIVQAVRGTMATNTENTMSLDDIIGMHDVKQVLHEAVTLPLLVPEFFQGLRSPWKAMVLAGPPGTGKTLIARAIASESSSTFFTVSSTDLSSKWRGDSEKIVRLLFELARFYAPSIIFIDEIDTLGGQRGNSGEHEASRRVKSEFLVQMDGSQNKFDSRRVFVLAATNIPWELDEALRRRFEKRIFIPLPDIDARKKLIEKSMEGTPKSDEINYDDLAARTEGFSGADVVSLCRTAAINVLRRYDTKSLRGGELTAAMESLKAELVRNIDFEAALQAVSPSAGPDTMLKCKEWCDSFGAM

T3: 6xHis-MEI-1 S92D (C. elegans, UniProt P34808 1-472, S92D)
T3 sequence (looked up): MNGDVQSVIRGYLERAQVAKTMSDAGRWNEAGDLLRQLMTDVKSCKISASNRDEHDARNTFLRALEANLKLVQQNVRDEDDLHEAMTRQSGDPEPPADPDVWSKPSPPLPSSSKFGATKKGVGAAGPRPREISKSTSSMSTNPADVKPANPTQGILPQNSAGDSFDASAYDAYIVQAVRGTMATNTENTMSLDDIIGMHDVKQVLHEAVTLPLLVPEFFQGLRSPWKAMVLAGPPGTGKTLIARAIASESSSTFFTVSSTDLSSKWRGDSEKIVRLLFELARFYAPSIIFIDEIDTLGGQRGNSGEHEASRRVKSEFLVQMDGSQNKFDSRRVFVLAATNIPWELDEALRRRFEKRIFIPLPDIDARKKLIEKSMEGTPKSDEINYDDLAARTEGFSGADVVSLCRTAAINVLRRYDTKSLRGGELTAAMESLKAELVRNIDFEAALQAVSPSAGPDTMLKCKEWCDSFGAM


Experiments:
MEL-26 [1] = biological target: MEL-26 (UniProt Q94420); assay: native dot blot of Katanin; settings: reference: unmodified wild type; sites S92
MEL-26 [2] = biological target: MEL-26 (UniProt Q94420); assay: Far-Western after SDS-PAGE; settings: reference: unmodified wild type; sites S92
[3] = biological target: T1, Katanin with MEI-1 S92D (6xHis-MEI-1 …); assay: overlay or dot blot
MEI-1 S92-aaPho-6xHis = biological target: T2, MEI-1 S92-aaPho-6xHis; assay: far-Western
6xHis-MEI-1 S92D = biological target: T3, 6xHis-MEI-1 S92D; assay: far-Western

binding against the reference (MEL-26 [1])	binding against the reference (MEL-26 [2])	binding result [3]	binding result (MEI-1 S92-aaPho-6xHis)	binding result (6xHis-MEI-1 S92D)	Molecule
stronger	stronger	–	–	–	MEI-1 (Katanin p60 catalytic subunit) (from UniProt P34808) S92-aaPho (phosphoserine by genetic code expansion)
–	–	binds	binds	binds	GST-MEL-26 (natural protein, C. elegans, UniProt Q94420 1-395, looked up) MEPRIDGGVFIGGIGNSGNEMCSNGVPALGVSSQTEIKVEKVQHTWTVKNFSHCYQEYLENFVYLQRGDEQLTWSIKIYPKGNGENNKDFVFLCLNRVINNNVKAGKIGFKSQFKLRTAENKDIEMRIHPNPSHSDYVSYIKRDVLFPQIMPRDMIIVNVEIDVAVETITTTNEPIQFEPTNSEQQLIEDYQRLFSQELLCDFAINVNGKIIRAHKAVLAARSPVFNAMLTHQDTDEAKSSMMYINDMDYDVIYEMVYYIYCGRCNKDITDMATALLIAADKYRLEELKSHCEKYLVENINIENACSLLIIGDLYSAPKLRKRAVTYILARPKNVTGTPGWEDILKGHPNLITDIFSQIDRQSSTGATSSVSNLPGVPMDIPGITGNIVPPPSGL
